Key:
Assay type in all cases: binding
RGS4 A148C, -7C = target: T1, RGS4 A148C, -7C (Rattus norvegicus, UniProt P49799, C132A/C183A/C197A/C204A/C71A/C95A); test: FCPIA, RGS4 A148C in the -7C; details: read-out: Gαo affinity
T1 construct: made in house
T1 sequence (P49799 52-205 C71A/C95A/C132A/C183A/C197A/C204A): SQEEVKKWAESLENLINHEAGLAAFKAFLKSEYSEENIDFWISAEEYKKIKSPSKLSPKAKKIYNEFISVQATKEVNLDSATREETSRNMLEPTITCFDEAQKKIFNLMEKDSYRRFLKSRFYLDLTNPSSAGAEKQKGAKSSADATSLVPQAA
Method: (§1) Figure 5 Dose curves of 5nd on various RGS4 cysteine mutants. Various concentrations of 5nd were tested for disruption of the RGS4-Gαo interaction for C95A (5 nM), or […], C71A (5nM) or C148A (5nM) (B), A95C in the -7C (5nM), or A132C in the -7C (5nM) (C), A71C in the -7C (5nM), or A148C in the -7C (5nM) (D) or the mutant with no cysteines in the domain (20 nM) or the C-terminus (20 nM) (E) in the FCPIA (mean ± S.E.M., n ≥ 3).
(§2) The previous experiments tested which cysteines are necessary for inhibition by 5nd. In an alternative approach, we added cysteines back to the -7C mutant to determine which might be sufficient for 5nd activity. […] Furthermore, Cys132 is involved in the actions but this is clearly not sufficient to explain them. Thus it is concluded that 5nd is at least partially non-selective in its cysteine modification.
(§3) Proteins were expressed, purified and labeled as described previously. The mutagenesis was done using the "QuickChange Multi Site-Directed Mutagenesis Kit" from Stratagene according to the manufacturer's protocol. The construct of RGS4 used in these studies is a maltose binding protein (MBP-) fusion protein of the RGS4 sequence from which the amphipathic N-terminal helix has been removed (i.e. MBP-RGS4Δ51N). For simplicity in the text, this will be referred to as RGS4. […]

RGS4 A132C, -7C = target: T2, RGS4 A132C, -7C (Rattus norvegicus, UniProt P49799, C148A/C183A/C197A/C204A/C71A/C95A); test: FCPIA, RGS4 A132C in the -7C; details: read-out: Gαo affinity
T2 construct: made in house
Method: as §1, §2, §3

RGS4 C132A = target: T3, RGS4 C132A (Rattus norvegicus, UniProt P49799, C132A); test: FCPIA, RGS4 cysteine mutant C132A; details: read-out: Gαo affinity
T3 construct: made in house
T3 sequence (P49799 52-205 C132A limits assumed): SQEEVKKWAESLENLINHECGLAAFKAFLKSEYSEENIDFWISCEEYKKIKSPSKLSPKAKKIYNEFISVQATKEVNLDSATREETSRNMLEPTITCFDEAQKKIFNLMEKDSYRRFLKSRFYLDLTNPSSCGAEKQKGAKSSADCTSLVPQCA
Method: as §1
(§4) Proteins were expressed, purified and labeled as described previously. The mutagenesis was done using the "QuickChange Multi Site-Directed Mutagenesis Kit" from Stratagene according to the manufacturer's protocol. The construct of RGS4 used in these studies is a maltose binding protein (MBP-) fusion protein of the RGS4 sequence from which the amphipathic N-terminal helix has been removed (i.e. MBP-RGS4Δ51N). For simplicity in the text, this will be referred to as RGS4. All other RGS proteins were human sequences and were used as Mpb fusions: RGS7 RGS domain (aa: 305–453), RGS8 full length, RGS16 full length, and RGS19ΔC11 (amino acids 1–209). To cleave RGS4Δ51N from the MBP-His6 construct for MS analysis, MBP-His6-RGS4Δ51N was treated with 15% MBP-His6-TEV protease S219V [11] for 22 hours at 4°C and purified over a Ni-NTA column.
(§5) FCPIA was performed as previously published.

RGS4 A71C, -7C = target: T4, RGS4 A71C, -7C (Rattus norvegicus, UniProt P49799, C132A/C148A/C183A/C197A/C204A/C95A); test: FCPIA, RGS4 A71C in the -7C; details: read-out: Gαo affinity
T4 construct: made in house
Method: as §1, §2, §3

RGS4 C148A = target: T5, RGS4 C148A (Rattus norvegicus, UniProt P49799, C148A); test: FCPIA, RGS4 cysteine mutant C148A; details: read-out: Gαo affinity
T5 construct: made in house
Method: as §1, §4, §5

[1] = target: T6, RGS4 no Cys in RGS domain (Rattus norvegicus, UniProt P49799, C132A/C148A/C71A/C95A); test: FCPIA, RGS4 mutant with no Cys in RGS domain; details: no Cys in RGS domain; read-out: Gαo affinity
T6 construct: made in house
Method: (§6) Since 5nd forms an irreversible, DTT-sensitive bond with RGS, it was suspected that it binds covalently to a cysteine in the protein through a disulfide bridge. Indeed, removal of all 7 cysteines (termed the -7C mutant) from RGS4 greatly diminished 5nd activity (logIC50 of -3.24 ± 0.14 for -7C vs. -4.36 ± 0.02 for wild type) (Figure 5, Table 2).
as §1, §3

RGS4 -7C = target: T7, RGS4 -7C (Rattus norvegicus, UniProt P49799, C132A/C148A/C183A/C197A/C204A/C71A/C95A); test: FCPIA, RGS4 -7C mutant (all 7 cysteines removed); details: read-out: Gαo affinity
T7 construct: made in house
Method: as §6, §1, §3

[2] = target: RGS4 no Cys in C-terminus; test: FCPIA, RGS4 mutant with no Cys in C-terminus; details: read-out: Gαo affinity
Method: as §6, §1, §3

RGS4 C95A = target: T8, RGS4 C95A (Rattus norvegicus, UniProt P49799, C95A); test: FCPIA, RGS4 cysteine mutant C95A; details: read-out: Gαo affinity
T8 construct: made in house
T8 sequence (P49799 52-205 C95A limits assumed): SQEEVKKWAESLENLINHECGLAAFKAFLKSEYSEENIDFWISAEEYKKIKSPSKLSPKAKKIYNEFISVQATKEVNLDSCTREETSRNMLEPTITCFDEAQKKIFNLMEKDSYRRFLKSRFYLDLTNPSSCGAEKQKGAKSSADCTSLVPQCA
Method: as §1, §4, §5

RGS4 C71A = target: T9, RGS4 C71A (Rattus norvegicus, UniProt P49799, C71A); test: FCPIA, RGS4 cysteine mutant C71A; details: read-out: Gαo affinity
T9 construct: made in house
T9 sequence (P49799 52-205 C71A limits assumed): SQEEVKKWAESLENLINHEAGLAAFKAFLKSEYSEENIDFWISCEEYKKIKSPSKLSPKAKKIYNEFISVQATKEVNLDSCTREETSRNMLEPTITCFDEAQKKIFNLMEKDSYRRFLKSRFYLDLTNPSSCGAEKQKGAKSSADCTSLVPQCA
Method: as §1, §4, §5

RGS4 A95C, -7C = target: T10, RGS4 A95C, -7C (Rattus norvegicus, UniProt P49799, C132A/C148A/C183A/C197A/C204A/C71A); test: FCPIA, RGS4 A95C in the -7C; details: read-out: Gαo affinity
T10 construct: made in house
Method: as §1, §2, §3

RGS4 = target: T11, RGS4 (Rattus norvegicus, UniProt P49799); test: FCPIA (flow cytometry protein interaction assay), RGS4-Gαo interaction, wild type RGS4 (MBP-RGS4Δ51N); details: wild type RGS4Δ51N, calculated in the FCPIA; read-out: Gαo affinity
T11 construct: made in house
T11 sequence (P49799 52-205 limits assumed): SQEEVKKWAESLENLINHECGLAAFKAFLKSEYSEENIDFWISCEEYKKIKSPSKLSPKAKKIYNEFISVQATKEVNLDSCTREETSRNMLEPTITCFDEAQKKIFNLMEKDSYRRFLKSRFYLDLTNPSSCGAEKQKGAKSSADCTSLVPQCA

T2 sequence (P49799 52-205 C71A/C95A/C148A/C183A/C197A/C204A): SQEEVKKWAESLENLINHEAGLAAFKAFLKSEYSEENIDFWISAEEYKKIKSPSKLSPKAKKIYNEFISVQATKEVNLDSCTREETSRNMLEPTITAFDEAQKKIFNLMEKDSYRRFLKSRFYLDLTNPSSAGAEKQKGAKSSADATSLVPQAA
T6 sequence (P49799 52-205 C71A/C95A/C132A/C148A limits assumed): as the sequence (P49799 52-205 C71A/C95A/C148A/C183A/C197A/C204A) above, with C81A, A132C, A146C, A153C counted along it
T5 sequence (P49799 52-205 C148A limits assumed): as the sequence (P49799 52-205 C71A/C95A/C148A/C183A/C197A/C204A) above, with A20C, A44C, A132C, A146C, A153C counted along it
T4 sequence (P49799 52-205 C95A/C132A/C148A/C183A/C197A/C204A): as the sequence (P49799 52-205 C71A/C95A/C148A/C183A/C197A/C204A) above, with A20C, C81A counted along it
T10 sequence (P49799 52-205 C71A/C132A/C148A/C183A/C197A/C204A): as the sequence (P49799 52-205 C71A/C95A/C148A/C183A/C197A/C204A) above, with A44C, C81A counted along it
T7 sequence (P49799 52-205 C71A/C95A/C132A/C148A/C183A/C197A/C204A): as the sequence (P49799 52-205 C71A/C95A/C148A/C183A/C197A/C204A) above, with C81A counted along it

B1: Gαo: Alexa Fluor 532-labeled Gα subunit, binding partner of RGS proteins in the FCPIA (protein)
chain: MGCTLSAEERAALERSKAIEKNLKEDGISAAKDVKLLLLGAGESGKSTIVKQMKIIHEDGFSGEDVKQYKPVVYSNTIQSLAAIVRAMDTLGVEYGDKERKADSKMVCDVVSRMEDTEPFSAELLSAMMRLWGDSGIQECFNRSREYQLNDSAKYYLDSLDRIGAADYQPTEQDILRTRVKTTGIVETHFTFKNLHFRLFDVGGQRSERKKWIHCFEDVTAIIFCVALSGYDQVLHEDETTNRMHESLMLFDSICNNKFFIDTSIILFLNKKDLFGEKIKKSPLTICFPEYPGSNTYEDAAAYIQTQFESKNRSPNKEIYCHMTCATDTNNIQVVFDAVTDIIIANNLRGCGLY
modifications: Alexa Fluor 532 label (sites not given)
RGS4 A148C, -7C
  Kd: 5.7 ± 0.2 nM
RGS4 A132C, -7C
  Kd: 12.5 ± 1 nM
RGS4 C132A
  Kd: 7.9 ± 3.1 nM
RGS4 A71C, -7C
  Kd: 9.2 ± 2 nM
RGS4 C148A
  Kd: 6.84 ± 1 nM
[1]
  Kd: 3.9 ± 0.8 nM
RGS4 -7C
  Kd: 8.3 ± 1 nM
[2]
  Kd: 5 ± 0.7 nM
RGS4 C95A
  Kd: 8.17 ± 1.5 nM
RGS4 C71A
  Kd: 12.2 ± 1.8 nM
RGS4 A95C, -7C
  Kd: 12 ± 2 nM
RGS4
  Kd: 11.6 ± 1.4 nM

Reference: publication PMC2700083, “A covalent peptide inhibitor of RGS4 identified in a focused one-bead, one compound library screen” (BMC Pharmacology, 2009)
